Data published in patent US7741051B2, “Soluble ectodomain fragments of MET and uses thereof” (Medical Research Council, priority 2003, dated 2010).

Key:
[1] = Binding of dimeric MET constructs to HiTrap Heparin HP column, NaCl gradient elution; conditions: 50 mM phosphate, 150 mM NaCl, pH 7.4, linear NaCl gradient
Protocol: (§1) Immulon B 96 well plates were coated with recombinant, single chain (R494E) or two chain HGF/SF in 50 mM phosphate buffer, pH 6.0. Wells were blocked, incubated with dimeric MET constructs at the concentrations shown in FIGS. 2a and b and bound MET was detected with HRP-conjugated rabbit anti-human IgG (Dako P0214). For heparin binding, dimeric MET constructs were loaded on a HiTrap Heparin HP column (Amersham Biosciences 17-0406-01) in 50 mM phosphate, 150 mM NaCl, pH 7.4 and eluted with a linear gradient of NaCl as shown in FIGS. 2c and d.

[2] = system: single chain (R494E) or two chain HGF/SF; assay: Solid phase binding of dimeric MET deletions to HGF/SF; conditions: plates coated with single chain (R494E) or two chain HGF/SF; bound MET detected with HRP anti-human IgG
Protocol: as §1

[3] = molecular target: T1, recombinant single chain HGF/SF (R494E) (human, UniProt P14210 32-728); assay: solid phase assay, HGF/SF coated, bound MET detected with HRP anti-human IgG
T1 construct: also called single chain (R494E) HGF/SF
Protocol: as §1

[4] = molecular target: T2, recombinant two chain HGF/SF (human, UniProt P14210 32-494; P14210 495-728); assay: as above
T2 construct: also called mature (two-chain) HGF/SF
Protocol: as §1

Chain of single chain (R494E) or two chain HGF/SF (P14210 32-493 limits assumed, stated change not applied): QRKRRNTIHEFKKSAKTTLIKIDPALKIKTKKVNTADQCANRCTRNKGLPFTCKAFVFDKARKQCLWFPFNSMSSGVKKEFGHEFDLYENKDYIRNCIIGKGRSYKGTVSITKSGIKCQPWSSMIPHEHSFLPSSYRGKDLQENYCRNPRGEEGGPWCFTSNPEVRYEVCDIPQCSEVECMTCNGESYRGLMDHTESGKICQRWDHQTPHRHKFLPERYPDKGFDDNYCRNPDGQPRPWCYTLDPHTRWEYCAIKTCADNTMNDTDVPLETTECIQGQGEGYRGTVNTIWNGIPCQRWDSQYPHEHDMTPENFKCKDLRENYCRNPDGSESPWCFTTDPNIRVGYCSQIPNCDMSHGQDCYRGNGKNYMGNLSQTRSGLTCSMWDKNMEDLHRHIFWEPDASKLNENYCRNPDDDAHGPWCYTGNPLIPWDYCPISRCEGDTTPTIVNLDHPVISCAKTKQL
T2 sequence (P14210 32-494 limits assumed, chain 1 of 2): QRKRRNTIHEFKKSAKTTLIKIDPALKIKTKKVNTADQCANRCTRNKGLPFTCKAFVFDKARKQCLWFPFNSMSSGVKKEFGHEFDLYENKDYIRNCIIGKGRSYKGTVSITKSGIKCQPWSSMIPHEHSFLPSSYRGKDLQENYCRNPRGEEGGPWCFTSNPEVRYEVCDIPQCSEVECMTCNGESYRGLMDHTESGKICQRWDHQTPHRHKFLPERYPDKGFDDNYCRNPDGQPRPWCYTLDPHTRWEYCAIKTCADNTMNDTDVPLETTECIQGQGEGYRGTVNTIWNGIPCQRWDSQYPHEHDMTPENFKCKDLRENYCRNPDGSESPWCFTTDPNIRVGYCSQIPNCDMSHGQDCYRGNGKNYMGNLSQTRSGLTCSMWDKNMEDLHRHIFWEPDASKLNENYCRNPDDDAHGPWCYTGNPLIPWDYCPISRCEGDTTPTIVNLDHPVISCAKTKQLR
T2 sequence (P14210 495-728 limits assumed, chain 2 of 2): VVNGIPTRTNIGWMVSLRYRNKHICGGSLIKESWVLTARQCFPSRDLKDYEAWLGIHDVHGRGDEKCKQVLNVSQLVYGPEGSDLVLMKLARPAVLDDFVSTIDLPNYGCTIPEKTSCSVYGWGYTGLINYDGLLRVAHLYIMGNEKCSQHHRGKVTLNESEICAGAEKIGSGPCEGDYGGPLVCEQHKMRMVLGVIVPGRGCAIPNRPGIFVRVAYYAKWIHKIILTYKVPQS
T1 sequence (P14210 32-728 R494E limits assumed): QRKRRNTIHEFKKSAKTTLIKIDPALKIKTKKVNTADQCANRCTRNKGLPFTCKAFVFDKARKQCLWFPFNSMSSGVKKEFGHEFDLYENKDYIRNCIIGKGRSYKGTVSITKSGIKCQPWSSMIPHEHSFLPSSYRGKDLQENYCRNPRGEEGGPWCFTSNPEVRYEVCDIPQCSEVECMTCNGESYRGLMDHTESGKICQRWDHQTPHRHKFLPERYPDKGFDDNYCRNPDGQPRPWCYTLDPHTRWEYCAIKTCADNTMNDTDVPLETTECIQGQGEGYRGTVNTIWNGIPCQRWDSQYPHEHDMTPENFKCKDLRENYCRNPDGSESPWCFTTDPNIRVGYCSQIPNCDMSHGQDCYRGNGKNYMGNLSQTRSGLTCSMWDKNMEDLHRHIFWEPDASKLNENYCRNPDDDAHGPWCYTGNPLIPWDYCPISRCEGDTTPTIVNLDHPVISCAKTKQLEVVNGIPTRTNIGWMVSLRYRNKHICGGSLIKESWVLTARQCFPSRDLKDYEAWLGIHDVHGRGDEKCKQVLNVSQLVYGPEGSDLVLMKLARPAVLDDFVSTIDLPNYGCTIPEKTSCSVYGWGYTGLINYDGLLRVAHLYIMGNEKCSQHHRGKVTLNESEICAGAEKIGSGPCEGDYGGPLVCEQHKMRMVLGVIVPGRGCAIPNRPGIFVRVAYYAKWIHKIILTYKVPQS

Row | Molecule | Binding to immobilised heparin [1] | Binding to HGF/SF [2] | also measured
1 | HGF/SF: hepatocyte growth factor/scatter factor, ligand of MET | strong heparin binding | – | –
2 | 25-519GH: dimeric MET aa 25-519 fused to human γ1 Fc, hexa-histidine tagged (protein, left off: a dimerising Fc or GST) ECKEALAKSEMNVNMKYQLPNFTAETPIQNVILHEHHIFLGATNYIYVLNEEDLQKVAEYKTGPVLEHPDCFPCQDCSSKANLSGGVWKDNINMALVVDTYYDDQLISCGSVNRGTCQRHVFPHNHTADIQSEVHCIFSPQIEEPSQCPDCVVSALGAKVLSSVKDRFINFFVGNTINSSYFPDHPLHSISVRRLKETKDGFMFLTDQSYIDVLPEFRDSYPIKYVHAFESNNFIYFLTVQRETLDAQTFHTRIIRFCSINSGLHSYMEMPLECILTEKRKKR chain (part 1 of 2): STKKEVFNILQAAYVSKPGAQLARQIGASLNDDILFGVFAQSKPDSAEPMDRSAMCAFPIKYVNDFFNKIVNKNNVRCLQHFYGPNHEHCFNRTLLRNSSGCEARRDEYRTEFTTALQRVDLFMGQFSEVLLTSISTFIKGDLTIANLGTSEGRFMQVVVSRSGPSTPHVNFLLDSHPVSPEVIVEHTLNQNGYTLVITGKKITKIPLNGLG chain (part 2 of 2): HHHHHH | indistinguishable from full length MET | readily measurable | Binding to immobilised heparin ([1]; listed as MET 25-519GH): showed binding
3 | 25-567GH: dimeric MET aa 25-567 fused to human γ1 Fc, hexa-histidine tagged (protein, left off: a dimerising Fc or GST) ECKEALAKSEMNVNMKYQLPNFTAETPIQNVILHEHHIFLGATNYIYVLNEEDLQKVAEYKTGPVLEHPDCFPCQDCSSKANLSGGVWKDNINMALVVDTYYDDQLISCGSVNRGTCQRHVFPHNHTADIQSEVHCIFSPQIEEPSQCPDCVVSALGAKVLSSVKDRFINFFVGNTINSSYFPDHPLHSISVRRLKETKDGFMFLTDQSYIDVLPEFRDSYPIKYVHAFESNNFIYFLTVQRETLDAQTFHTRIIRFCSINSGLHSYMEMPLECILTEKRKKR chain (part 1 of 2): STKKEVFNILQAAYVSKPGAQLARQIGASLNDDILFGVFAQSKPDSAEPMDRSAMCAFPIKYVNDFFNKIVNKNNVRCLQHFYGPNHEHCFNRTLLRNSSGCEARRDEYRTEFTTALQRVDLFMGQFSEVLLTSISTFIKGDLTIANLGTSEGRFMQVVVSRSGPSTPHVNFLLDSHPVSPEVIVEHTLNQNGYTLVITGKKITKIPLNGLGCRHFQSCSQCLSAPPFVQCGWCHDKCVRSEECLSGTWTQQICLPAIYK chain (part 2 of 2): HHHHHH | – | readily measurable | –
4 | MET 567-932GH (Fc fusion, IG leader left out; Dimer through the Fc; also called MET567-928GH; not shown: hinge, CH2 and CH3 domains of the human gamma1 antibody constant region) chain (part 1 of 2): KVFPNSAPLEGGTRLTICGWDFGFRRNNKFDLKKTRVLLGNESCTLTLSESTMNTLKCTVGPAMNKHFNMSIIISNGHGTTQYSTFSYVDPVITSISPKYGPMAGGTLLTLTGNYLNSGNSRHISIGGKTCTLKSVSNSILECYTPAQTISTEFAVKLKIDLANRETSIFSYREDPIVYEIHPTKSFISGGSTITGVGKNLNSVSVPRMVINVHEAGRNFTVACQHRSNSEIICCTTPSLQQLNLQLPLKTKAFFMLDGILSKYFDLIYVHNPVFKPFEKPVMISMGNENVLEIKGNDIDPEAVKGEVLKVGNKSCENIHLHSEAVLCTVPNDLLKLNSELNIEWKQAISSTVLGKVIVQPDQNFT chain (part 2 of 2): HHHHHH | – | – | binding result [3]: no binding; binding result [4]: no binding
5 | MET567-928GH: dimeric C-terminal part of the MET ectodomain fused to human γ1 Fc, hexa-histidine tagged (protein, left off: a dimerising Fc or GST) chain (part 1 of 2): KVFPNSAPLEGGTRLTICGWDFGFRRNNKFDLKKTRVLLGNESCTLTLSESTMNTLKCTVGPAMNKHFNMSIIISNGHGTTQYSTFSYVDPVITSISPKYGPMAGGTLLTLTGNYLNSGNSRHISIGGKTCTLKSVSNSILECYTPAQTISTEFAVKLKIDLANRETSIFSYREDPIVYEIHPTKSFISGGSTITGVGKNLNSVSVPRMVINVHEAGRNFTVACQHRSNSEIICCTTPSLQQLNLQLPLKTKAFFMLDGILSKYFDLIYVHNPVFKPFEKPVMISMGNENVLEIKGNDIDPEAVKGEVLKVGNKSCENIHLHSEAVLCTVPNDLLKLNSELNIEWKQAISSTVLGKVIVQPDQNFT chain (part 2 of 2): HHHHHH | no binding | no binding | Binding to immobilised heparin ([1]; listed as MET 567-928GH): none
